T1: Human CXCR2 (human, UniProt P25025 1-360)
T1 construct: Some cell lines carry an N-terminal 3xHA tag; also called hCXCR2; huCXCR2
T1 sequence: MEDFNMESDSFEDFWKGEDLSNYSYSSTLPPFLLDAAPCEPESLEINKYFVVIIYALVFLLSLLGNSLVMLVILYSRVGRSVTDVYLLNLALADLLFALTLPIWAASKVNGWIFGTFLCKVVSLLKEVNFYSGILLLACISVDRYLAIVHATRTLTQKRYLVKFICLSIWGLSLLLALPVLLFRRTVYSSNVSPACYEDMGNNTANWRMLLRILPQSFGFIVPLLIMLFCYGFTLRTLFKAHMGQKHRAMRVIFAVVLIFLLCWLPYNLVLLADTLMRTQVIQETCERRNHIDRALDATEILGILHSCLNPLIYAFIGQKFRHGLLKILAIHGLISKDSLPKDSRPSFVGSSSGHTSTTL

T2: Cynomolgus CXCR2 (cynomolgus, UniProt Q28519 3-353 (rhesus entry))
T2 construct: On transfected HEK293T or RBL-2H3 cells; native on cynomolgus neutrophils in the WBSC assay; also called cCXCR2; cynoCXCR2
T2 chain: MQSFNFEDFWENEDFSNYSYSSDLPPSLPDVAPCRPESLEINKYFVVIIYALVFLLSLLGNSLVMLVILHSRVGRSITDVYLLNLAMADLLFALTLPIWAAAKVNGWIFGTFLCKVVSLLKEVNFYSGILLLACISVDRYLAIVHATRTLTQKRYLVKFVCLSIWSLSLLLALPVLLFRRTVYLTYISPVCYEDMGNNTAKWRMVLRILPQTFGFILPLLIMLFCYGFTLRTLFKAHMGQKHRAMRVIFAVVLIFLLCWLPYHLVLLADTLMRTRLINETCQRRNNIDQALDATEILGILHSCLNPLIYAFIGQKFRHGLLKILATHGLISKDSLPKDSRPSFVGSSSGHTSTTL

B1: CXCR20021 (bispecific antibody)
chain: EVQLVESGGGLVQAGESLRLSCAASGSTFDFKVMGWYRQPPGKQREGVAAIRLSGNMHYAESVKGRFTISKANAKNTVYLQMNSLRPEDTAVYYCKVNIRGQDYWGQGTQVTVSSGGGGSGGGGSGGGGSGGGGSGGGGSGGGGSGGGGSEVQLVESGGGLVQPGGSLRLSCVASGRIFSSNAMGWFRQAPGKEREFVAAITWRSGGSAYYADSAKGRFTISRDNAKNTVYLQMNSLKPEDTAVYYCAAGGSSWLSFPPDYWGQGTQVTVSS
notes: Biparatopic: two VHH joined by a GlySer linker; also called 127D1-35GS-163E3; 127D1-163E3; not shown: C-terminal c-myc tag and His6 tag coded by pAX100
B2: CXCR20022 (VHH)
chain: EVQLVESGGGLVQAGGSLRLSCAASGRTFSDYAMGWFRQAPGKEREFVAAITWNGGRVFYTASVKGRFTISRDNAKNTMYLQMNSLKPEDTAVYYCAADKDRRTDYLGHPVAYWGQGTQVTVSSGGGGSGGGGSGGGGSGGGGSGGGGSGGGGSGGGGSEVQLVESGGGLVQAGGSLRLSCAASGRTFSDYAMGWFRQAPGKEREFVAAITWNGGRVFYTASVKGRFTISRDNAKNTMYLQMNSLKPEDTAVYYCAADKDRRTDYLGHPVAYWGQGTQVTVSS
notes: Bivalent: two VHH joined by a GlySer linker; also called 163D2-35GS-163D2; not shown: C-terminal c-myc tag and His6 tag coded by pAX100
B3: 143A5 (VHH)
VHH: KVQLVESGGGLVQAGGSLRLSCAASGRAFNYYVMAWFRQAQGKEREFVAAISTRGSMTKYSDSVQGRFTISRDNAKNTVYLHMNSLKPEDTAVYYCAADPRGSSWSFSSGGYDYWGQGTQVTVSS
notes: Tested as periplasmic extract only; also called 143A05; not shown: C-terminal c-myc tag and His6 tag coded by the vector
B4: 143B3 (VHH)
VHH: EVQLVESGGGLVQPGGSLRLSCAASGFTFSTYWMYWVRQAPGKGLDWVSAINAGGDSTYYADPVKGRFTISRDNNKNTLYLQMNSLKPEDTALYYCATVRGTARDLDYWGQGTQVTVSS
notes: Tested as periplasmic extract only; also called 143B03; not shown: C-terminal c-myc tag and His6 tag coded by the vector
B5: 145D3 (VHH)
VHH: EVQLVESGGGLVQAGGSLSLSCAASGLIFRLSGMAWYRQAPGRQREWVAVLTKDGTLHYADPVKGRFTISRNNAENTWYLQMNSLKPEDTAIYYCNTGRYWGQGTQVTVSS
notes: Tested as periplasmic extract only; also called 145D03; not shown: C-terminal c-myc tag and His6 tag coded by the vector
B6: 145C9 (VHH)
VHH: EVQLVESGGGLVQAGGSLRLSCAASGFTFDDYAIGWFRQAPGKERERVSCISGSDGSTYYADSVKGRFTISSDNAKNTVYLQMNNLKPEDTAVYYCAAYWGLTLRLWMPPHRYDYWGQGTQVTVSS
notes: Tested as periplasmic extract only; also called 145C09; not shown: C-terminal c-myc tag and His6 tag coded by the vector

Legend:
[1] = target: T1, Human CXCR2; experiment: FACS competition vs 3 nM FMAT-Blue Gro-α
Experimental: (§1) Multivalent anti-CXCR2Nanobodies were titrated against 3 nM FMAT-Blue-labeled Gro-α in the FACS ligand competition assay on human and cynomolgus CXCR2 (Table 14). On human CXCR2, blocking potencies range between double digit nM and sub-nM whereas on cynomolgus CXCR2, they range between single and double digit nM.

[2] = target: T2, Cynomolgus CXCR2; experiment: FACS competition vs 3 nM FMAT-Blue Gro-α
Experimental: as §1

[3] = target: T1, Human CXCR2; experiment: cell-based or functional assay
[4] = target: T1, Human CXCR2; experiment: cell-based or functional assay; remark: listed apart in the source
[5] = target: T2, Cynomolgus CXCR2; experiment: cell-based or functional assay
[6] = target: T1, Human CXCR2; experiment: FACS, periplasmic extract vs FMAT Blue Gro-α
Experimental: Periplasmic extracts (as described above) were analyzed on FACS for competition with Gro-α in binding to human CXCR2. 2×10⁵ cells were incubated with a ½ dilution of periplasmic extracts in FACS buffer (PBS+10% fetal bovine serum (Sigma, F7524)) for 30 minutes at 4° C. Then, an equal volume of 6 nM of FMAT Blue-labeled human Gro-α in FACS buffer was added and incubation was continued for another 30 minutes at 4° C. in the dark. Cells were then washed three times in FACS buffer and finally resuspended in FACS buffer. Dead cells were stained with propidium iodide (Sigma, P4170). Samples were then analyzed on a FACSarray (BD Biosciences).

Row | Binder | % inhibition of max [1] [%] | IC50 [1] [nM] | % inhibition of max [2] [%] | IC50 [2] [nM] | [35S]GTPγS % inhibition of max (GRO-α) [3] [%] | [35S]GTPγS IC50 (GRO-α) [3] [nM] | FLIPR % inhibition of max [4] [%] | FLIPR IC50 (GRO-α induced calcium release) [4] [nM] | FLIPR % inhibition of max [5] [%] | FLIPR IC50 (GRO-α induced calcium release) [5] [nM] | FACS Gro-α competition (% inhibition) [6] [%] | also measured
1 | B1 | 99.5 | 1.09 | 98.5 | 1.85 | 100 | 0.551 | 100 | 7.32 | 100 | 2.31 |  | [35S]GTPγS % inhibition of max (ENA-78) [3]: 100%; [35S]GTPγS % inhibition of max (IL-8) [3]: 100%; [35S]GTPγS IC50 (ENA-78) [3]: 0.787 nM; [35S]GTPγS IC50 (IL-8) [3]: 0.827 nM
2 | B2 | 100 | 4.14 | 98 | 8.01 | 100 | 28.5 | 100 | 9.34 | 100 | 8.64 |  | 
3 | B3 |  |  |  |  |  |  |  |  |  |  | 72.6 | 
4 | B4 |  |  |  |  |  |  |  |  |  |  | 70.8 | 
5 | B5 |  |  |  |  |  |  |  |  |  |  | 77.9 | 
6 | B6 |  |  |  |  |  |  |  |  |  |  | 53.5 | 
